Assay results reported in the supplement of paper PMC10567573.

B1: ZNF263 (parent)
chain: HLTRHQRTHTGEKPYKCTLCGENF
B2: BTBD1 (parent)
chain: IVGFGLYGSIHGPTDYQVNIQIIE

Variants of: B1
Assay: protein stability index of a GFP-peptide fusion (GPS, HEK-293T) (PSI 1-6); higher = more stable
Conditions: c terminus: a fixed tail appended
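Note: lentivirally expressed fusions sorted by FACS into six bins by GFP to DsRed ratio, PSI derived from sequencing read proportions per bin multiplied by bin number.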

Protein stability index of substitutions, site by site:
Y15: W 2.46, I 2.85, E 3.69, S 3.48, K 3.11, F 3.31, M 3.18, N 3.29, Q 3.44, H 3.24, D 4.21, V 3.22
C20: V 3.07, H 2.66, N 3.25, W 2.56, P 2.53, S 3.23, D 3.69, A 2.89, F 2.25, L 2.61
E12: P 2.8, F 2.47, V 3.08, I 2.11, S 3.19, R 2.55, H 3.78, G 2.23
H5: R 2.74, G 3, Q 3.08, P 2.91, T 2.24, D 2.56, I 2.11, F 2.47, V 2.27
G11: H 2.83, E 3.92, V 2.38, W 2.07, D 3.25, I 2.46, M 2.84, S 3.45, A 3.15, P 2.86, F 2.72
K16: G 3.19, W 2.78, Q 3.17, V 2.3, N 2.82, M 3.17, A 3.72, H 2.91, T 2.9
E22: D 3.33, P 2.95, F 1.95, W 2.13, G 2.31, V 2.17, L 2.08, C 2.29, N 2.69, I 2.75
L2: D 4.16, I 2.59, M 3.04, G 3.51, K 3.38, T 3.14, Y 3.3, W 2.71, A 3.06, C 4.73, N 3.73, E 3.31
T18: C 2.54, W 2.54, D 2.75, S 2.84, L 2.49, A 2.94, I 2.36, K 2.98, R 2.68, V 2.42, E 3.78
K13: M 2.56, S 3.24, H 2.9, T 3.54, E 3.64, Y 2.74, C 4.22
H1: G 2.19, T 2.56, R 3.02, Q 3.06, N 3.22, D 2.97, Y 2.23, F 1.36, L 3.11, A 3.07, C 4.02
C17: V 3.7, P 3.37, T 3.06, I 2.21, Q 3.46, N 3.1, M 2.81, Y 3.05, L 2.68, H 2.89
G21: W 2.23, Q 2.85, S 2.99, N 3.02, H 3.46, K 3.42, T 2.7, P 2.68, I 2.41, E 3.58, L 2.58, A 3.27
N23: A 2.68, F 2.33, V 1.85, C 3.13, T 2.83, G 4.03, Y 2.53, R 3.08, E 2.75, D 3.33, P 2.54, I 2.57
H9: G 3.04, T 3.04, E 3.41, Q 2.67, V 2.65, S 2.71, A 2.67, I 2.48, M 2.5, C 2.74, P 2.77
T10: R 3.36, D 2.78, G 2.92, A 3.14, F 2.73, E 3.42, K 3.12, P 2.45, V 2.45, Y 2.58, N 2.44, W 2.82, S 3.12, Q 3.44
T3: W 2.31, F 2.3, S 2.83, I 2.33, Q 3.28, N 3.6, M 2.63, V 2.93, L 2.1
R7: H 4.64, P 2.63, E 3.98, Y 2.9, L 2.97, K 2.97, D 3.2
R4: F 2.38, G 2.38, K 3.47, E 3.7, C 3.67, D 4.07, S 3.37, Y 2.76, T 3.1, N 3.09
Q6: F 2.08, P 2.69, V 2.29, L 2.61, I 2.22, N 2.46, H 3.28, K 2.94, C 3.36
L19: G 2.56, N 3.68, R 3.03, F 2.62, E 3.36, S 3.14, K 3.7, D 3.84, M 2.83, P 2.7
T8: D 3.52, L 2.78, Q 3.41, P 2.54, W 2.29, F 2.46, S 3.4, V 2.65, K 2.38
P14: D 3.65, H 3.01, N 2.92, L 3.14, A 2.79, C 2.52, R 2.9, S 2.79, M 2.63
F24: D 4.62, W 3.08, I 3.02, R 3.13, S 4.49, G 3.67, A 4.22, Q 2.88, N 3.7

Variants of: B2
Assay: as above
Conditions: c terminus: a fixed tail appended

Protein stability index: each site, then its substitutions
Y16: A 2.1, W 3.98, E 2.15, T 4.3, H 1.6
I10: V 2.09, F 3.05, C 3.14
G3: A 3.04, R 4.02, W 4.95
I20: V 2.83, S 1.93, Q 2.58, P 2.21
Q17: F 2.95, K 2.3, C 2.49
F4: W 1.8, A 1.97, Q 1.9
E24: A 2.41, S 2.78, H 2.33, Y 2.02
V2: M 2.49, C 3.88, R 2.96, Y 2.16
I22: F 2.84, K 2.4, E 2, D 1.3
L6: N 2.56, G 4.42, W 1.76, A 3.31, E 2.02, V 3.11, P 3.27
Q21: D 3.52, I 2.01, P 2.37, E 2.68, F 1.77
G8: N 2.5, L 2.81, R 1.45, D 2.86
N19: P 3.38, M 4.59
G12: D 3.52, I 1.72, Q 3.29
H11: K 1.55, C 2.58
Y7: M 2.82, W 3.5, F 1.86, R 4.6, V 2.16, H 3.81, E 3.6
I1: T 1.82, F 3.14, D 2.03, P 1.82, K 2.14, H 2.38
D15: M 2.99, P 2.37, V 2.67
S9: V 3.54, F 2.95, R 2.67
V18: Q 2.38, H 1.58
G5: R 2.57, D 2.4, Y 3.17, M 2.92, H 2.33
T14: R 4.46, D 2.94, H 2.71, V 2.82
I23: R 2.12, M 3.68, E 2.23
P13: G 1.57, L 2.25, R 2.35, V 2.33
